The text below walks through data of article PMC6008203.

Substrate in the data set: CC(C)(COP(=O)(O)OP(=O)(O)OC[C@H]1O[C@@H](n2cnc3c(N)ncnc32)[C@H](O)[C@@H]1OP(=O)(O)O)[C@@H](O)C(=O)NCCC(=O)NCCS
Briefly: purified protein. The class given is biochemical, Streptomyces platensis. To be noted: saturating 6 (100 μM), Tris pH 7.8, 25 °C.

Positions count from the first letter of the chain named. In names and notes the source's numbering stands.

B1: PtmA2 (Streptomyces platensis; A497K) (protein)
chain: MQHTTIGDVLREHRRSHPGRTALVDGPVRLTWPELDDRVNRLAGSLAASGIGRGDRIMWLGQNSFRVYELIAAAGKLGAMVCVGYWRWAPPEMEFALRDFDPHLVVWQHQEIHETVARTREALGSDDTARWLRHDSAPQDPDGYEAFLAAGGLADPDLDIDPDSPVLVLYTAAMSGRQCGSLLSHTNLIAMATAAAWLGDIDHTTAFLNSGPMFHIGNHQFWGMPTLLMAGKNVIVRRVVAEEVRDLLVAEECTHAFLMPPTVAEIVRLNRDTGHDLSRLRATVAPHLWEGMATTDTSRFTRSGAAAGRGYGQTELSGFAVTAAYGGPAAGNAGRPGPGLTVRVLDTAGRECAVGEAGEICARGTVVHRGYWNRDEVNAHRFRSGWWHTTDLGRREPDGSLTFLGTTTRMLKSAAENIFPAEVENCIEQHPAVREAAVIGVPNTRWAQDVKAVVVLEPDAGVSEQEIIDHCRPRIASYKKPKSVAFAAALPRTVSGKRDYDALDKEYGGGGYPGAATLGPGR
B1: the Michaelis constant (Km) was 6.8 ± 1.0 µM, the Vmax is 4.74 µmol/min, the kcat was determined as 32 s⁻¹ and the catalytic efficiency (kcat/Km) was found to be 4.7e+06 M⁻¹ s⁻¹.

B2: PtmA2 (Streptomyces platensis) (protein)
chain: B1 chain with K497A
Turning to B2, the Km stood at 6.2 ± 0.6 µM, the Vmax came out at 5.82 µmol/min, the kcat worked out at 20 s⁻¹ and the kcat/Km worked out at 3.2e+06 M⁻¹ s⁻¹.

B3: PtmA2 (Streptomyces platensis; A172S/A173G/A497K/C179K/M174T/Q178P) (protein)
chain: B1 chain with A172S, A173G, M174T, Q178P, C179K
As for B3, where the note is “A497K/P-loop mutant”, the Km was 69 ± 11 µM, the Vmax is 5.94 µmol/min, the kcat was 10 s⁻¹ and the kcat/Km amounted to 140000 M⁻¹ s⁻¹.

B4: PtmA2 (Streptomyces platensis; E416A) (protein)
chain: B1 chain with E416A, K497A
On to B4, for which the Michaelis-Menten constant (Km) worked out at 7.8 ± 1.2 µM, the Vmax worked out at 5.34 µmol/min, the kcat turned out to be 0.18 s⁻¹ and the kcat/Km stood at 23000 M⁻¹ s⁻¹.

B5: PtmA2 (Streptomyces platensis; A172S/A173G/C179K/M174T/Q178P) (protein)
chain: B1 chain with A172S, A173G, M174T, Q178P, C179K, K497A
For the protein B5, for the setting “P-loop mutant”, the Michaelis constant (Km) turned out to be 70 ± 8 µM, the Vmax turned out to be 8.88 µmol/min, the kcat was determined as 7.4 s⁻¹ and the kcat/Km was found to be 110000 M⁻¹ s⁻¹.
